First the molecules themselves.
B1: MOP4 (other)
chain: MDEDEKDRAKRASRNKSEKKRRDQFNVLIKELSSMLPGNTRKMDKTTVLEEVIGFLQKHNEVSAQTEICDIQQDWKPSFLSNEEFTQLMLEALDGFIIAVTTDGSIIYVSDSITPLLGHLPSDVMDQNLLNFLPEQEHSEVYKILSSHMLVTDSPSPEYLKSDGDLEFYCHLLRGSLNPKEFPTYEYIKFVGNFRSYNNVPSPSCNGFDNTLSRPCRVPLGKEVCFIATVRLATPQFLKEMCIVDEPLEEFTSRHSLEWKFLFLDHRAPPIIGYLPFEVLGTSGYDYYHIDDLELLARCHQHLMQFGKGKSCCYRFLTKGQQWIWLQTHYYITYHQWNSKPEFIVCTHSVVSYADVRVERRQELALEDPPSEALHSSALKDKGSSLEPRQHFNALDVGASGLNTSHSPSASSRSSHKSSHTAMSEPTSTPTKLMAEASTPALPRSATLPQELPVPGLSQAATMPAPLPSPSSCDLTQQLLPQTVLQSTPAPMAQFSAQFSMFQTIKDQLEQRTRILQANIRWQQEELHKIQEQLCLVQDSNVQMFLQQPAVSLSFSSTQRPEAQQQLQQRSAAVTQPQLGAGPQLPGQISSAQVTSQHLLRESSVISTQGPKPMRSSQLMQSSGRS
notes: also called huMOP4
B2: LexAbHLH-PAS fusion of CLOCK (PL828) (other, UniProt P0A7C2 1-202, looked up)
chain: MKALTARQQEVFDLIRDHISQTGMPPTRAEIAQRLGFRSPNAAEEHLKALARKGVIEIVSGASRGIRLLQEEEEGLPLVGRVAAGEPLLAQQHIEGHYQVDPSLFKPNADFLLRVSGMSMKDIGIMDGDLLAVHKTQDVRNGQVVVARIDDEVTVKRLKKQGNKVELLPENSEFKPIVVDLRQQSFTIEGLAVGVIRNGDWLMLFTVSCSKMSSIVDRDDSSIFDGLVEEDDKDKAKRVSRNKSEKKRRDQFNVLIKELGSMLPGNARKMDKSTVLQKSIDFLRKHKEITAQSDASEIRQDWKPTFLSNEEFTQLMLEALDGFFLAIMTDGSIIYVSESVTSLLEHLPSDLVDQSIFNFIPEGEHSEVYKILSTHLLESDSLTPEYLKSKNQLEFCCHMLRGTIDPKEPSTYEYVKFIGNFKSLNSVSSSAHNGFEGTIQRTHRPSYEDRVCFVATVRLATPQFIKEMCTVEEPNEEFTSRHSLEWKFLFLDHRAPPIIGYLPFEVLGTSGYDYYHVDDLENLAKCHEHLMQYGKGKSCYYRFLTKGQQWIWLQTHYYITYHQWNSRPEFIVCTHTVVSYAEVRAERRRELG
notes: range 1-202;domain: bHLH-PAS domains; also called LexA fusion of CLOCK
B3: LexA control (other, UniProt P0A7C2 1-202, looked up)
chain: MKALTARQQEVFDLIRDHISQTGMPPTRAEIAQRLGFRSPNAAEEHLKALARKGVIEIVSGASRGIRLLQEEEEGLPLVGRVAAGEPLLAQQHIEGHYQVDPSLFKPNADFLLRVSGMSMKDIGIMDGDLLAVHKTQDVRNGQVVVARIDDEVTVKRLKKQGNKVELLPENSEFKPIVVDLRQQSFTIEGLAVGVIRNGDWL
B4: MOP6 (other)
chain: MAPTKPSFQQDPSRRERLQALRKEKSRDAARSRRGKENFEFYELAKLLPLPAAITSQLDKASIIRLTISYLKMRDFANQGDPPWNLRMEGPPPNTSVKGAQRRRSPSALAIEVFEAHLGSHILQSLDGFVFALNQEGKFLYISETVSIYLGLSQVELTGSSVFDYVHPGDHVEMAEQLGMKLPPGRGLLSQGTAEDGASSASSSSQSETPEPVESTSPSLLTTDNTLERSFFIRMKSTLTKRGVHIKSSGYKVIHITGRLRLRVSLSHGRTVPSQIMGLVVVAHALPPPTINEVRIDCHMFVTRVNMDLNIIYCENRISDYMDLTPVDIVGKRCYHFIHAEDVEGIRHSHLDLLNKGQCVTKYYRWMQKNGGYIWIQSSATIAINAKNANEKNIIWVNYLLSNPEYKDTPMDIAQLPHLPEKTSESSETSDSESDSKDTSGITEDNENSKSDEKGNQSENSEDPEPDRKKSGNACDNDMNCNDDGHSSSNPDSRDSDDSFEHSDFENPKAGEDGFGALGAMQIKVERYVESESDLRLQNCESLTSDSAKDSDSAGEAGAQASSKHQKRKKRRKRQKGGSASRRRLSSASSPGGLDAGLVEPPRLLSSPNSASVLKIKTEISEPINFDNDSSIWNYPPNREISRNESPYSMTKPPSSEHFPSPQGGGGGGGGGGGLHVAIPDSVLTPPGADG
notes: Mentioned only in the general description
B5: human aryl hydrocarbon receptor (AHR), full length (receptor, UniProt P35869 1-848, looked up)
chain: MNSSSANITYASRKRRKPVQKTVKPIPAEGIKSNPSKRHRDRLNTELDRLASLLPFPQDVINKLDKLSVLRLSVSYLRAKSFFDVALKSSPTERNGGQDNCRAANFREGLNLQEGEFLLQALNGFVLVVTTDALVFYASSTIQDYLGFQQSDVIHQSVYELIHTEDRAEFQRQLHWALNPSQCTESGQGIEEATGLPQTVVCYNPDQIPPENSPLMERCFICRLRCLLDNSSGFLAMNFQGKLKYLHGQKKKGKDGSILPPQLALFAIATPLQPPSILEIRTKNFIFRTKHKLDFTPIGCDAKGRIVLGYTEAELCTRGSGYQFIHAADMLYCAESHIRMIKTGESGMIVFRLLTKNNRWTWVQSNARLLYKNGRPDYIIVTQRPLTDEEGTEHLRKRNTKLPFMFTTGEAVLYEATNPFPAIMDPLPLRTKNGTSGKDSATTSTLSKDSLNPSSLLAAMMQQDESIYLYPASSTSSTAPFENNFFNESMNECRNWQDNTAPMGNDTILKHEQIDQPQDVNSFAGGHPGLFQDSKNSDLYSIMKNLGIDFEDIRHMQNEKFFRNDFSGEVDFRDIDLTDEILTYVQDSLSKSPFIPSDYQQQQSLALNSSCMVQEHLHLEQQQQHHQKQVVVEPQQQLCQKMKHMQVNGMFENWNSNQFVPFNCPQQDPQQYNVFTDLHGISQEFPYKSEMDSMPYTQNFISCNQPVLPQHSKCTELDYPMGSFEPSPYPTTSSLEDFVTCLQLPENQKHGLNPQSAIITPQTCYAGAVSMYQCQPEPQHTHVGQMQYNPVLPGQQAFLNKFQNGVLNETYPAELNNINNTQTTTHLQPLHHPSEARPFPDLTSSGFL
notes: Full length in yeast (PRSAHR) and in the Hsp90 co-IP (huAHR); also called huAHR; Ah receptor

Assay [1] has as its target B5. The experiment in a line: co-IP of 35S-labelled in vitro translated protein with AHR-specific antiserum. Here is the method: (§1) 1. Interaction of MOPs with the AHR and ARNT in vitro; Coimmunoprecipitation experiments. We first performed coimmunoprecipitation experiments to determine if MOPs 1–4 had the capacity to interact with either the AHR or ARNT in vitro. These proteins were expressed in a reticulocyte lysate system in the presence of ^35S-methionine and then incubated in the presence or absence of the AHR or ARNT. Complex formation was assayed by coimmunoprecipitation with AHR or ARNT specific antisera, followed by quantitation of coimmunoprecipitated ^35S-labeled MOP by phosphoimage analysis. Interactions were identified by a reproducible increase in an AHR or ARNT-dependent precipitation of MOP protein. Because we have observed considerable variability in this coimmunoprecipitation assay, each experiment was performed at least three times.

Assay [2] has as its target T1, AH receptor nuclear translocator (ARNT), full length (human, UniProt P27540 1-789).
T1 construct: Full length: in vitro translated, expressed in yeast (PL574) or transfected; Endogenous ARNT in the Hep3B experiment; also called huARNT; hARNT
The experiment in a line: co-IP of 35S-labelled in vitro translated protein with ARNT-specific antiserum. Here is the method: as §1

A further assay concerns the target T2, Hsp90.
T2 construct: Endogenous Hsp90 of the translation lysate
The experiment in a line: co-IP of 35S-labelled in vitro translated protein with anti-Hsp90 antibody 3G3p90, phosphoimager. Here is the method:
Coimmunoprecipitation with Hsp90. Each MOP construct was in vitro translated in the presence of [^35S]-methionine in a TNT coupled transcription/translation system (Promega). Hsp90 immunoprecipitation assays were performed with monoclonal antibody 3G3p90 or a control IgM antibody, TEPC 183 (Sigma) essentially as described. Each immunoprecipitation was subjected to SDS-PAGE, and the resulting gel was dried. The level of radioactivity in each coprecipitated protein band was quantified on a Bio-Rad GS-363 Molecular Imager System. The amount of protein immunoprecipitated with the Hsp90 antibody is presented as a percentage of the amount of murine AHR immunoprecipitated in parallel assays.
4. Interaction of MOPs with Hsp90. In an effort to assess a MOP's ability to interact with Hsp90, we performed coimmunoprecipitation assays with anti Hsp90 antibodies. Given the remarkable stability of the Hsp90 complex with the AHR from the C57BL/6J mouse, we used this receptor species as a reference and compared all interactions relative to it. As additional controls, we immunoprecipitated ARNT and the human AHR as negative and positive controls, respectively. Despite our ability to readily detect huAHR-Hsp90 interactions, we were unable to detect ARNT, MOP2 or MOP5 interactions with Hsp90. In contrast, huAHR, MOP1, MOP3 and MOP4 all immunoprecipitated with HSP90-specific antisera. […]

The target of assay [3] is T1, AH receptor nuclear translocator …. The experiment in a line: yeast interaction trap (mating), X-Gal overlay. Here is the method:
Interaction Screen Against Known bHLH-PAS Proteins. LexAbHLH-PAS fusion proteins ("baits") of HIF1α, HIF2α, MOP3, MOP4, AHR, ARNT, and CLOCK were transformed into the L40 strain of yeast. The full-length ("fish") MOP3 and ARNT plasmids were transformed into the AMR70 yeast strain, and these transformants were plated onto yeast complete media plates (Kaiser et al., 1994, in *Methods in Yeast Genetics*, Cold Spring Harbor Press, Plainview, N.Y.). The L40 yeast harboring the bait constructs were replica plated onto these yeast complete media plates and mated for 8 hr at 30° C. The plates were then replica plated onto selective media and grown for an additional day at 30° C. 5-Bromo-4-chloro-3-indolyl […]-galactoside (X-Gal) overlay assays were performed to determine the relative expression of the lacZ reporter gene (Bohen and Yamamoto, 1993, PNAS 90: 11424–11428). Western blot analysis, using LexA-specific sera, was performed on extract from each transformant to confirm expression of the fusion protein (see Example 1).

The target is the same in assay [4]. Nature of the assay: functional data, assay not described.

T1 sequence (P27540 whole entry): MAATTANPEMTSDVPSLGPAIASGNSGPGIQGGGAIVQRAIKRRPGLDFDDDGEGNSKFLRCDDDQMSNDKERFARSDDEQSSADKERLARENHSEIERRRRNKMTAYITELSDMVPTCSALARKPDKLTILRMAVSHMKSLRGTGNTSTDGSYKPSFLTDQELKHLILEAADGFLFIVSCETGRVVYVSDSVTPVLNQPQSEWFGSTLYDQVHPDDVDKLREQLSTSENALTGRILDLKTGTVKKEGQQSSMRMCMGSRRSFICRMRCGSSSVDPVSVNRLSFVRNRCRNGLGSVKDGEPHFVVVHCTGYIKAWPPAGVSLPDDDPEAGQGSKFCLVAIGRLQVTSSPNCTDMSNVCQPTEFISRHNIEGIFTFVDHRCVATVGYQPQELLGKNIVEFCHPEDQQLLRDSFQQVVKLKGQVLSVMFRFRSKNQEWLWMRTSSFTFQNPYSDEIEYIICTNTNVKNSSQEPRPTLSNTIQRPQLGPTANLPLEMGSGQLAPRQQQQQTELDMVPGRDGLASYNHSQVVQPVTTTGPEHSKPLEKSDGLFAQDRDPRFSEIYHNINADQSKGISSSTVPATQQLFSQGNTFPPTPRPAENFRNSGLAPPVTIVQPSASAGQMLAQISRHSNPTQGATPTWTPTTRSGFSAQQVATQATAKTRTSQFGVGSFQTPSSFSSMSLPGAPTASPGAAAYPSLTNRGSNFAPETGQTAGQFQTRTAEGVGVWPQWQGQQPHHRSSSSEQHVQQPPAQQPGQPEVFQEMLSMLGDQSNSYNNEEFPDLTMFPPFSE

On to B1, for which the binding result in assay [1] and in assay [2] was “no binding” in each case. The “percent of the amount of murine AHR immunoprecipitated with the Hsp90 antibody” value with Hsp90 is 31%.

With B2, the binding result in assay [3] is “no binding”.

Consider B3, for which the binding result in assay [3] was “no binding”.

Take B4: in assay [4], the binding result is listed as “binds”.

As for B5, in the assay with Hsp90, the “percent of the amount of murine AHR immunoprecipitated with the Hsp90 antibody” value amounted to 53%.

These data come from patent publication US7105647 (WISCONSIN ALUMNI RESEARCH FOUNDATION, dated 2006).
